Results as given in US20090148383A1.

Tests used:
[1] = target: activated, fibrinogen-bound GP IIb/IIIa on activated mouse platelets (mouse) (UniProt Q9QUM0); experiment: ex vivo 11.7 T MRI of the wire-injured mouse femoral artery after bead perfusion
[2] = target: activated, fibrinogen-bound GP IIb/IIIa on activated mouse platelets (mouse) (UniProt Q9QUM0); experiment: histology of the wire-injured mouse femoral artery after bead perfusion
[3] = target: recombinant tick anticoagulant peptide (rTAP) (UniProt P17726)
Sequence of recombinant tick anticoagulant peptide (rTAP) (P17726 whole entry): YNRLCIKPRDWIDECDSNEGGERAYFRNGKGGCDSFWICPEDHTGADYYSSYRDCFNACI

Sequence of activated, fibrinogen-bound GP IIb/IIIa on activated mouse platelets (mouse) (Q9QUM0 32-1033, chain 1 of 2): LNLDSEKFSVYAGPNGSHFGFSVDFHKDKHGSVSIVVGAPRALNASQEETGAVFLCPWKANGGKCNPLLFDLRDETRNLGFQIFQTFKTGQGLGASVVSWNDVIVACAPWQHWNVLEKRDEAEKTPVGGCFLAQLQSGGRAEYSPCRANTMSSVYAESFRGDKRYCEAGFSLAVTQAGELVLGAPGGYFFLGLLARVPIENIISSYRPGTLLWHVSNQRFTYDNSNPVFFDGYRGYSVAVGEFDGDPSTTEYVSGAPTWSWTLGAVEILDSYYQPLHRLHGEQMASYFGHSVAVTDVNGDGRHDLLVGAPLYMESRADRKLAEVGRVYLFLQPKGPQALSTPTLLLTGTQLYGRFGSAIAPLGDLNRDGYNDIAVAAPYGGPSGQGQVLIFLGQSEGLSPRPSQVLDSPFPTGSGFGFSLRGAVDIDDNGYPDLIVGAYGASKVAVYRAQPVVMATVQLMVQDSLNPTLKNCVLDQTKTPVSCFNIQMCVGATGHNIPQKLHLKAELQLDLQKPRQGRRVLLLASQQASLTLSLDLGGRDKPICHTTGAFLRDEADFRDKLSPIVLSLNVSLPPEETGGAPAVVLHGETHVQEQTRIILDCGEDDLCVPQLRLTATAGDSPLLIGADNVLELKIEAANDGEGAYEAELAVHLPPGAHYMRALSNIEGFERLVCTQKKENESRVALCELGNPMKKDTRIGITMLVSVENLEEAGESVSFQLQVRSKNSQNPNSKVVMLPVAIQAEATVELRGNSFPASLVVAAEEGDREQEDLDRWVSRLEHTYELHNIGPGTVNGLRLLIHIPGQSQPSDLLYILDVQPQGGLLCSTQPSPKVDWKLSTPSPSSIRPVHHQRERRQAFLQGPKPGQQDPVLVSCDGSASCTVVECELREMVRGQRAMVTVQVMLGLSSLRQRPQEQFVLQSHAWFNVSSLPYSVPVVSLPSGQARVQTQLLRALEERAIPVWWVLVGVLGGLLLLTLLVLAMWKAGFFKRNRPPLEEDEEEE
Sequence of activated, fibrinogen-bound GP IIb/IIIa on activated mouse platelets (mouse) (O54890 26-787, chain 2 of 2, further chain): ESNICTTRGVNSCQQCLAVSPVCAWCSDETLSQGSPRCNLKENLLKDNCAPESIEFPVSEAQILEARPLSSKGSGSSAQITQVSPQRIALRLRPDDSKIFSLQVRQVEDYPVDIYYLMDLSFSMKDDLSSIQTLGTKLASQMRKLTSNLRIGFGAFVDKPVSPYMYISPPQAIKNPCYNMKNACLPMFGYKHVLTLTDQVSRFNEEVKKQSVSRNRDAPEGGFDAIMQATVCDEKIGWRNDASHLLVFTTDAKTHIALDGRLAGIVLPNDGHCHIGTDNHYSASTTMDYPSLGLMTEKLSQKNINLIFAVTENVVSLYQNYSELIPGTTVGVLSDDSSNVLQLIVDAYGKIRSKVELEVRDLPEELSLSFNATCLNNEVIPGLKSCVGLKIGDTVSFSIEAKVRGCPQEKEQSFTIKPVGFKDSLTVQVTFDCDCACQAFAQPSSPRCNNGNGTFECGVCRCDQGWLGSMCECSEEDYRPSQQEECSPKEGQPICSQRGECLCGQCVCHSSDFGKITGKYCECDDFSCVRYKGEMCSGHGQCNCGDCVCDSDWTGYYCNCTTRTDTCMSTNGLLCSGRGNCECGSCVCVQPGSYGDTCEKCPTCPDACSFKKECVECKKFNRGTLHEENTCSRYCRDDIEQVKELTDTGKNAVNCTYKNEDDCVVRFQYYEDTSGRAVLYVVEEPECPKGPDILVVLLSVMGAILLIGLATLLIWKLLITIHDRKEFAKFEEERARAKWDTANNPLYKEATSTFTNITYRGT

Substance | luminal areas of low signal suggesting MPIO-accumulation (ex vivo MRI) [1] | MPIO-binding (beads per section) (beads per section) [2] | cleavage of chromogenic substrate (spectrozyme FXa #222) by factor Xa (500 pM), OD at 405 nm [3]
irrelevant single-chain antibody conjugated to MPIO (Control-MPIO) (scFv) | 6.2 | 0.5 | 
scFv anti-LIBS (anti-LIBS single-chain antibody) | 23.7 | 9.98 | 
factor Xa |  |  | inhibition of factor Xa activity by rTAP, scFv anti-LIBS-TAP, and non-targeted mut-scFv-TAP, but not by scFv anti-LIBS
